In US20220177604A1 (ARGENX, published 2022):
Substitutions are numbered along the chain they refer to.

B1: Oma VH15W100b - VL3D28H (antibody, V domains shown)
VH: EVQLVESGGGLVQPGGSLRLSCAVSGYSITSGHRWEWIRQAPGKGLEWVASIHYDGSTNYNPSVKGRITISRDDSKNTFYLQMNSLRAEDTAVYYCARATHYFGHHHFAVWGQGTLVTVSS
VL: DIQLTQSPSSLSASVGDRVTITCRASQSVDYHGDSYMNWYQQKPGKAPKLLIEWGSYLRSGVPSRFSGSGSGTDFTLTISSLQPEDFATYYCQQNAEDPYTFGQGTKVEIK
notes: also called Oma VH15W100b VL3D25H
B2: OmaVH15G55HW100b - VL3S31H (antibody, V domains shown)
VH: B1 VH with G56H
VL: B1 VL with H32D, S35H
B3: Oma VH15W100b - VL3S31H (antibody, V domains shown)
VH: B1 VH
VL: B1 VL with H32D, S35H
B4: Oma VH15W100b - VL3D28HS31H (antibody, V domains shown)
VH: B1 VH
VL: B1 VL with S35H
B5: CL-2C mAb 1 (antibody, V domains shown)
VH: QVQLVQSGAEVMKPGSSVKVSCKASGYTFSWYWLEWVRQAPGHGLEWMGEIDPGTFTTHYNEKFKARVTFTADTSTSTAYMELSSLRSEDTAVYYCARFSHFSGSHYDYFDYWGQGTLVTVSS
VL: EIVMTQSPATLSVSPGERATLSCRASQHIGTNIHWYQQKPGQAPRLLIYYASESISGIPARFSGSGSGTEFTLTISSLQSEDFAVYYCQQSWSHPTTFGGGTKVEIK
notes: also called CL-20 mAb 1; VK28H94H + VH58H100BH
B6: CL-2C mAb 12 (antibody, V domains shown)
VH: B5 VH with W33H, H59N, H106N, Y107H
VL: B5 VL with H28S, Y50H
notes: also called VK50H94H + VH33H100CH
B7: CL-2C mAb 17 (antibody, V domains shown)
VH: B5 VH with W33H, H59N, H106N, Y107H
VL: B5 VL with H28S, Y50H, W92D
notes: also called VK50H92D94H + VH33H100CH
B8: CL-2C mAb 13 (antibody, V domains shown)
VH: B5 VH with W33H, H59N
VL: B5 VL with H28S, Y50H
notes: also called VK50H94H + VH33H100BH
B9: CL-2C mAb 36 (antibody, V domains shown)
VH: B5 VH
VL: B5 VL with H28S, H94W
notes: also called VKWT + VH58H100BH
B10: CL-2C mAb 5 (antibody, V domains shown)
VH: B5 VH with H59N, H106N
VL: B5 VL
notes: also called VK28H94H + VHWT
B11: CL-2C mAb 2 (antibody, V domains shown)
VH: B5 VH with W33H, H59N, H106N, Y107H
VL: B5 VL
notes: also called CL-20 mAb 2; VK28H94H + VH33H100CH
B12: CL-2C mAb 27 (antibody, V domains shown)
VH: B5 VH with W33H, H59N, H106N, Y107H
VL: B5 VL with H28S, Y50H, H94W
notes: also called VK50H + VH33H100CH
B13: CL-2C mAb 8 (antibody, V domains shown)
VH: B5 VH with W33H, H59N
VL: B5 VL with H28S, Y50H, Q89H, W92D, H94W
notes: also called VK50H92D89H + VH33H100BH
B14: CL-2C mAb 7 (antibody, V domains shown)
VH: B5 VH with W33H, H59N, H106N, Y107H
VL: B5 VL with H28S, Y50H, Q89H, W92D, H94W
notes: also called VK50H92D89H + VH33H100CH
B15: CL-2C mAb 28 (antibody, V domains shown)
VH: B5 VH with W33H, H59N
VL: B5 VL with H28S, Y50H, H94W
notes: also called VK50H + VH33H100BH
B16: CL-2C mAb 38 (antibody, V domains shown)
VH: B5 VH with W33H, H59N
VL: B5 VL with H28S, H94W
notes: also called VKWT + VH33H100BH
B17: CL-2C mAb 33 (antibody, V domains shown)
VH: B5 VH with W33H, H59N
VL: B5 VL with H28S
notes: also called VK94H + VH33H100BH
B18: CL-2C mAb 39 (antibody, V domains shown)
VH: B5 VH with W33H, H59N, S105H, H106N
VL: B5 VL with H28S, H94W
notes: also called VKWT + VH33H100AH
B19: CL-2C mAb 26 (antibody, V domains shown)
VH: B5 VH
VL: B5 VL with H28S, Y50H, H94W
notes: also called VK50H + VH58H100BH
B20: CL-2C mAb 30 (antibody, V domains shown)
VH: B5 VH with H59N, H106N
VL: B5 VL with H28S, Y50H, H94W
notes: also called VK50H + VHWT
B21: CL-2C mAb 15 (antibody, V domains shown)
VH: B5 VH with H59N, H106N
VL: B5 VL with H28S, Y50H
notes: also called VK50H94H + VHWT
B22: CL-2C mAb 35 (antibody, V domains shown)
VH: B5 VH with H59N, H106N
VL: B5 VL with H28S
notes: also called VK94H + VHWT
B23: CL-2C mAb 20 (antibody, V domains shown)
VH: B5 VH with H59N, H106N
VL: B5 VL with H28S, Y50H, W92D
notes: also called VK50H92D94H + VHWT
B24: CL-2C mAb 31 (antibody, V domains shown)
VH: B5 VH
VL: B5 VL with H28S
notes: also called VK94H + VH58H100BH
B25: CL-2C mAb 29 (antibody, V domains shown)
VH: B5 VH with W33H, H59N, S105H, H106N
VL: B5 VL with H28S, Y50H, H94W
notes: also called VK50H + VH33H100AH
B26: CL-2C mAb 14 (antibody, V domains shown)
VH: B5 VH with W33H, H59N, S105H, H106N
VL: B5 VL with H28S, Y50H
notes: also called VK50H94H + VH33H100AH
B27: CL-2C mAb 32 (antibody, V domains shown)
VH: B5 VH with W33H, H59N, H106N, Y107H
VL: B5 VL with H28S
notes: also called VK94H + VH33H100CH
B28: CL-2C mAb 34 (antibody, V domains shown)
VH: B5 VH with W33H, H59N, S105H, H106N
VL: B5 VL with H28S
notes: also called VK94H + VH33H100AH
B29: CL-2C mAb 18 (antibody, V domains shown)
VH: B5 VH with W33H, H59N
VL: B5 VL with H28S, Y50H, W92D
notes: also called VK50H92D94H + VH33H100BH
B30: CL-2C mAb 40 (antibody, V domains shown)
VH: B5 VH with H59N, H106N
VL: B5 VL with H28S, H94W
notes: also called VKWT + VHWT
B31: CL-2C mAb 19 (antibody, V domains shown)
VH: B5 VH with W33H, H59N, S105H, H106N
VL: B5 VL with H28S, Y50H, W92D
notes: also called VK50H92D94H + VH33H100AH
B32: CL-2C mAb 9 (antibody, V domains shown)
VH: B5 VH with W33H, H59N, S105H, H106N
VL: B5 VL with H28S, Y50H, Q89H, W92D, H94W
notes: also called VK50H92D89H + VH33H100AH
B33: CL-2C mAb 6 (antibody, V domains shown)
VH: B5 VH
VL: B5 VL with H28S, Y50H, Q89H, W92D, H94W
notes: also called VK50H92D89H + VH58H100BH
B34: CL-2C mAb 3 (antibody, V domains shown)
VH: B5 VH with W33H, H59N
VL: B5 VL
notes: also called VK28H94H + VH33H100BH
B35: CL-2C mAb 11 (antibody, V domains shown)
VH: B5 VH
VL: B5 VL with H28S, Y50H
notes: also called VK50H94H + VH58H100BH
B36: CL-2C mAb 10 (antibody, V domains shown)
VH: B5 VH with H59N, H106N
VL: B5 VL with H28S, Y50H, Q89H, W92D, H94W
notes: also called VK50H92D89H + VHWT
B37: CL-2C mAb 16 (antibody, V domains shown)
VH: B5 VH
VL: B5 VL with H28S, Y50H, W92D
notes: also called VK50H92D94H + VH58H100BH
B38: CL-2C mAb 4 (antibody, V domains shown)
VH: B5 VH with W33H, H59N, S105H, H106N
VL: B5 VL
notes: also called VK28H94H + VH33H100AH
B39: OmaVH15G55HW100b - VL3D28HS31H (antibody, V domains shown)
VH: B1 VH with G56H
VL: B1 VL with S35H
notes: human IgG1

molecular target: T1, human immunoglobulin E (hIgE) (human, UniProt P01854-1 1-428); test: SPR (Biacore)
T1 construct: also called human IgE; Native IgE (Abcam)
T1 sequence (P01854 whole entry): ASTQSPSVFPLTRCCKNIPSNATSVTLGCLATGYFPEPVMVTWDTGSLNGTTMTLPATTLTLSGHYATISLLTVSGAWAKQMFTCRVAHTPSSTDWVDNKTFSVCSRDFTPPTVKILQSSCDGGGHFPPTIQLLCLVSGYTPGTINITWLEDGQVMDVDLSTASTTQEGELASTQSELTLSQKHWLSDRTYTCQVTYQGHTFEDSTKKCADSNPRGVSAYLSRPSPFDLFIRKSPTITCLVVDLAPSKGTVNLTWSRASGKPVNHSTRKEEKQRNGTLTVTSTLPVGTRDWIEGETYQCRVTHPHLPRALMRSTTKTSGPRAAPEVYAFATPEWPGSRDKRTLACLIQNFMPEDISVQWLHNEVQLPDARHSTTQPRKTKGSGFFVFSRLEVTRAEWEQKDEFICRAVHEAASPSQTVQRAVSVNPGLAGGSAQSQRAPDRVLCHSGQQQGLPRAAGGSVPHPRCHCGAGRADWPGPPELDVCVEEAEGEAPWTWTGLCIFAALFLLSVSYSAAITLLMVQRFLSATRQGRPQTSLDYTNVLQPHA

Binder	Ratio pH 7.4/pH6.0 (of KD)
B1	7.5
B2	20.3
B3	31.1
B4	23.5

molecular target: T1, human immunoglobulin E (hIgE); test: SPR (Biacore) on hIgE
Experimental: The ratio of KD measured at pH 5.5 versus KD measured at pH 7.4 was calculated for each of the CL-2C antibodies.

Binder	KD Ratio pH 5.5/pH 7.4
B5	4.6
B6	3.9
B7	7.1
B8	17.3
B9	4.3
B10	0.3
B11	8.5
B12	7.4
B13	2.8
B14	7.9
B15	9
B16	6.5
B17	7
B18	4.6
B19	8.9
B20	1
B21	1.1

Binder	KD Ratio pH 5.5/pH 7.4
B22	0.6
B23	1.1
B24	5.5
B25	3.8
B26	3.2
B27	6.2
B28	3
B29	0.2
B30	0.6
B31	5.2
B32	2.5
B33	6.1
B34	8.4
B35	6
B36	0.7
B37	4.7
B38	3.3

molecular target: T1, human immunoglobulin E (hIgE); test: SPR (Biacore), pH 6.0

Binder	Kd	koff	kon
B1	64.5 nM	0.0148 s⁻¹	232000 M⁻¹ s⁻¹
B2	312 nM	0.0986 s⁻¹	243000 M⁻¹ s⁻¹
B3	190 nM	0.0375 s⁻¹	206000 M⁻¹ s⁻¹
B4	206 nM	0.0895 s⁻¹	453000 M⁻¹ s⁻¹

molecular target: T1, human immunoglobulin E (hIgE); test: SPR (Biacore), pH 7.4

Binder	Kd	koff	kon
B1	8.59 nM	0.00182 s⁻¹	213000 M⁻¹ s⁻¹
B2	15.4 nM	0.00391 s⁻¹	253000 M⁻¹ s⁻¹
B3	6.12 nM	0.00244 s⁻¹	398000 M⁻¹ s⁻¹
B4	8.78 nM	0.00251 s⁻¹	290000 M⁻¹ s⁻¹
B39		0.00356 s⁻¹	

molecular target: T2, recombinant Motavizumab human IgE (rMota-hIgE) (human, UniProt P01854 1-428); test: hIgE binding ELISA, pH 7.4
T2 construct: also called Recombinant IgE (argenx)
T2 sequence (P01854 other isoform, or with tags, fused parts or gaps limits assumed, form in doubt): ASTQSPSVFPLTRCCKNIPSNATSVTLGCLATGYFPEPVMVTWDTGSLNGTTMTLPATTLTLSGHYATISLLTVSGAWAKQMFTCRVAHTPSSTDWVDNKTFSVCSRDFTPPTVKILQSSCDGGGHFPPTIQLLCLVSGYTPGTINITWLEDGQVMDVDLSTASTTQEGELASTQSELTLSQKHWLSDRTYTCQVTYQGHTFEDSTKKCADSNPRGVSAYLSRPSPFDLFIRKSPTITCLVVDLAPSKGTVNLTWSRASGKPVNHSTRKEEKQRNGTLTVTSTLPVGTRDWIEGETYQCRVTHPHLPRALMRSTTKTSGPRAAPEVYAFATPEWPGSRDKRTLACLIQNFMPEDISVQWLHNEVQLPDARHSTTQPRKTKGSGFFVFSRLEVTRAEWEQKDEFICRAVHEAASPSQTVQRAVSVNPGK
Experimental: Briefly a Maxisorp plate was coated with recombinant human respiratory syncytial virus protein F (RSV-F) (0.5 μg/mL), then blocked with PBS with 3% BSA and 0.05% Tween. […] After several washing steps at pH 7.4 or pH 5.5, detection of the bound mAbs was carried out with an anti-human Fc-HRP antibody.

Binder	EC50
B1	0.015 µg/mL
B2	0.0191 µg/mL
B3	0.0152 µg/mL
B4	0.0156 µg/mL

molecular target: T1, human immunoglobulin E (hIgE); test: competition ELISA, hIgE to hFcεRIα

Binder	IC50
B1	35 nM
B2	446 nM
B4	585 nM
B39	9.49 nM
